The series deals with CcpA (Streptococcus anginosus, UniProt A0A412PPL7 1-334). As to the kind of experiment: EMSA; 0.5-8 µg CcpA, 5 pmol probe; no HPr or fructose-1,6-bisphosphate; 500-fold unlabeled creC inhibits the shift. The note with it: protein: recombinant; tags: N-terminal His6; chain copies: 2; label: 5' IRDye700 on strand 1 (probe); blunt.

B1: creC (dsDNA)
DNA 1: GTTTACGCGAAAGCGCTTTTTTTATATA
DNA 2: TATATAAAAAAAGCGCTTTCGCGTAAAC
Take B1: the binding result is “binds”.

The values above are taken from article PMC5998137, “Regulation of the β-hemolysin gene cluster of Streptococcus anginosus by CcpA”.
